Test results published in publication PMC6584647, “Integrated NMR and cryo-EM atomic-resolution structure determination of a half-megadalton enzyme complex” (Nature Communications, 2019).

Biological target: the molecule itself
Experiment: cryo-EM structure; single-particle cryo-EM map at 4.1 Å with tetrahedral symmetry imposed, refined jointly with MAS NMR and solution-NMR restraints (XPLOR-NIH, full dodecamer)

B1: aminopeptidase TET2 from Pyrococcus horikoshii (enzyme)
chain: MEVRNMVDYELLKKVVEAPGVSGYEFLGIRDVVIEEIKDYVDEVKVDKLGNVIAHKKGEGPKVMIAAHMDQIGLMVTHIEKNGFLRVAPIGGVDPKTLIAQRFKVWIDKGKFIYGVGASVPPHIQKPEDRKKAPDWDQIFIDIGAESKEEAEDMGVKIGTVITWDGRLERLGKHRFVSIAFDDRIAVYTILEVAKQLKDAKADVYFVATVQEEVGLRGARTSAFGIEPDYGFAIDVTIAADIPGTPEHKQVTHLGKGTAIKIMDRSVICHPTIVRWLEELAKKHEIPYQLEILLGGGTDAGAIHLTKAGVPTGALSVPARYIHSNTEVVDERDVDATVELMTKALENIHELKI
notes: TET2 aminopeptidase, Pyrococcus horikoshii, UniProt O59196; 353 residues (39 kDa) per subunit as printed; Dodecamer of 12 x 39 kDa (468 kDa), with two zinc ions in each active site; Samples carried various isotope labels (2H, 13C, 15N, methyl labelling); the cryo-EM sample was u-[2H,13C,15N]-labelled; No tag is mentioned; source: E. coli BL21(DE3), purified (heating to 85 °C, Resource Q, size …)
- stoichiometry N: 12
